According to the nanobody polyreactivity screen of Harvey et al. (2022):

assay: yeast display, Sf9 membrane polyspecificity reagent, FACS + sequencing; frameworks hold sequencing errors
Method in brief: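 Nanobodies from a synthetic yeast display library (Saccharomyces cerevisiae BJ5465), induced 36–48 hours with galactose, were stained 1 hour at 4 °C with 10% biotinylated, detergent-solubilized Sf9 membrane reagent, enriched on streptavidin microbeads, then FACS-sorted. Anti-HA (expression) and streptavidin (reagent binding) fluorescence set low and high (top ~1%) gates. Polyreactivity labels come from the gate of origin. Genes were colony-PCR amplified, MiSeq 2 × 250 sequenced and filtered by CDR length.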

| Sequence | polyreactivity (PSR sort gate) |
| --- | --- |
| QVQLVEAGGGLVQAGGSLRLSCAASGITLYLYVMGWYRQAPGKEREFVAAIRWSGGSTYYADSVKGRFTISRDNAKNTVYLQMNSLKPEDTAVYYCNAEVYCYYSARRPGYEYWGQGTQVTVSS | low polyreactivity |
| QVQLVEAGGGLVQAGGSLRLSCAASGSIFGYYAMGWYRQAPGKERELVAAISYRGGSTYYADSVKGRFTISRDNAKNTVYLQMNSLKPEDTAVYYCNAGGRRRIFAHSSTGDYWGQGTQVTVSS | high polyreactivity |
| QVQLVEAGGGLVQAGGSLRLSCAASGSIFSHNAMGWYRQAPGKERELVAAISVSGGTTYYADSVKGRFTISRDNAKNTVYLQMNSLKPEDTAVYYCAAKRFQGVGYLGQGTQVTVSS | high polyreactivity |
| QVQLVEAGGGLVQAGGSLRLSCAASGSIFVGYAMGWYRPAPGKEREFVAAINYRGGATYYADSVKGRFTISRDNAKNTDYLQMNSLQPEDTAVYYCAVGGWVIYPASLDYWGQGTQVTVSS | low polyreactivity |
| QVQLVEAGGGLVQAGGSLRLSCAASGYTFGKNAMGWYRQAPGKERELVAAITYSGGSTYYADSVKGRFTISRDNAKNTVYLQMNSLKPEDTAVYYCAADNPSDVYDTWVYYWGQGTQVTVSS | high polyreactivity |
| QVQLVEAGGGLVQAGGSLRLSCASSGNTFYPYAMGWYRQAPGKERELVAVITSGTDTYYADSVKARFTISRDNAKNTVYLQMNSLKPEDTAVYYCAASLYWRYGYWGQGTQVTVSS | high polyreactivity |
| QVQLVEAGGGLVQAGGSLRLTCAASGPIFLSKAMGWYRQAPGTERELVAAINSGGNTDYADSVKARFTISRDNEKNTFYLQMNSLKPEDTAVYYCAADAFSWDHDYWGQGTQVTVSS | low polyreactivity |
| QVQLVEAGGGLVQAGGSLRLTCAASVRTFTGYAMGCYRQAPGTERELVAAMTLSGGSTYYADSVKGRFTISRDNAKNTVYLQMNSLKPEDTAVFYCAAKWWHFYPYDYWGQGTQVTVSS | high polyreactivity |
| QVQLVEAGGGLVQAGGTLRLSCDPSGLIFGLYAMGWYRHAPGKERELVAAISESGGGITYYADSVKGRFTISRDNAKNTVYLQMYSLKPEDTAVYYCNADRYVWAGFDFSTYDYWGQGTLVTVSS | low polyreactivity |
| QVQLVEAGGGLVQSGGSLRLSCAASGSIFNIYAMGWSRQAAGKDRELVAVISSRGGRSYYADSVKGRFTISRDNAKNTVYLQMTSLKPEDTAVYYCAAGYLRQGYRGYDYWGQGTQVTVSS | high polyreactivity |
| QVQLVEAGGGVVQAGGSLRLSCAASGIIFYPYALGWYRQAPGKERELVADITSGGGTNYADSVKGRFTISRDNAKNTVYLQMNSLKPEDTAVYDCAAEVRGYHWGTYYEFYYWGQGTQVTVSS | low polyreactivity |
| QVQLVEAVGGLVQAGGSLRLSCAASGNTYYGNAMGWYRQAPGKEREFVAAITIRTGSTYYADSVKGRFTISRDNAKNTVYLQMNSLKPDDTAVYYCAADAYWRWNWYDYWGQGTQVTVSS | high polyreactivity |
| QVQLVEEGGGLVQAGGSLSLSCAASGRIFKTNSMGWYIQAPGKERELVAGSTDSGDSTYYADSVKGRFTISRDNAKNTVYLQMNSLKPEDTAVYYCATDPASPYIYDYWGQGTQVTVSS | low polyreactivity |
| QVQLVEKGGGLVQAGGSLRLSCAASGRTFRSNAMGWYRQAPGKERELVAAIRSRGGSTYYADSVKGRFTISRDNAKNTVYLQMNSLKPEDTAVYYCAAKHGSTSHDSWGQGTQVTVSS | high polyreactivity |
| QVQLVEPGGGLVQAGGSLRLSCAASGFTFYDYAMGWYRQAPGKERELVARINGGGGTNYADSVKGRFTISRDNAKNTVYLQMNSLKPEDSAVYYCAADLYFRQGDVDLLRYDYWGQGTQVTVSS | low polyreactivity |
| QVQLVEPGGGLVQAGGSLRLSCAASGSIFAYYVMGWYRQAPGKERELVAGISFSGGTTYYADSVNGRFTISRDNAKNTVYLQMNSLKPEDTAVYYCNADPDHREFDYWGQGTQVTVSS | low polyreactivity |
| QVQLVESAAGLVQAGGSLRLSCAASGGIFHGYAMGWYRHAPGKERELVAAISWSTGSTYYADSVKGRFTISRDNAKNTVYLQMNSLKPEDTAVYYCAARYLSGTSRYYYWGQGTQVTVSS | high polyreactivity |
| QVQLVESAAGLVQAGGSLRLSCAASGSTFGHYTMGWYRQAPGKERDLVAAISWSGGRTYYADSVKGRFTISRDYAKNTVYLQMNSLKPEDTAVYYCYVGYRGWSVNSWGQGTQVTVSS | high polyreactivity |
| QVQLVESAAGLVQAGGSLRVSCAASGSSFRLYAMGWYRPAPGKEREFVARIRWRGGSTNYADSVKGRFTISRDNAKNNVYLQMNSLKTEDTAVYYCAAKQGTVRAHTYVPWYDYWGQGTQVTVSS | high polyreactivity |
| QVQLVESAAGLVQAGGSLSLICAASGYIFATYAMGWYIQAPGTETELVAAITSGGITNYADSVKGRFTISRDNAKNTVYLQMNSLKPEDTAVYYCATGRRRYYFREYYYWGQGTQVTVSS | high polyreactivity |
| QVQLVESAGCLVQAGASLRLSCAASGGTFRLYAMGWSRQAPGKERELVAAITGSSGGTYYADSVKGRFTISRDNAKNTVYLQMNSLKPEDTAVYYCAASSSYWGQGTQVTVSS | low polyreactivity |

| Sequence | polyreactivity (PSR sort gate) |
| --- | --- |
| QVQLVESAGGIDQAGGRLRLSSAASGGIFTPYAMGCYRQAPGKDRELVATISSDGSTNYADSVKGRFTISRDNAKNTVYLQMNSLKPEDTAVYYCNIDRHKVAGTLPGWWYDYLGQGTQVTVSS | low polyreactivity |
| QVQLVESAGGLFQAGGSLRLSCAASGRTFYSNTMGWYRQAPGKEREFVAAIPSIVGSTYYADSVKGRFTISRDNSKNTVYLQMKSLKPEDTAVYDCAVTDYYSYLLRYDSWGQGTEVTVSS | low polyreactivity |
| QVQLVESAGGLVQAGASLRLSCAASGGTSPVYAMGWYRQAPGKERELVAAIRYSGGRTNYADSVKGRFTISRDNAKNTVYLQMNSLKPEDTAVYYCAARGYRYQGDYWGQGTQVTVSS | high polyreactivity |
| QVQLVESAGGLVQAGASLRLSCAASGSTFYYYAMGWYRQAPGKERELVAAIDWDSGSTYYADSVKGRFTISRDNAKNTVFLQMNSLNPEDTAVYYCAADSWFSDFDYWGQGTQETVSS | high polyreactivity |
| QVQLVESAGGLVQAGASLRLSCDASGSTFVYYDMGWYRQAPGKERELVASISWSGGSTSYSDSVKGRFTISRDNAKNTVYLQMNSLKPEDTAVYYCNKSNPDYDGLAIHAFDYWGQGTQVTVSS | low polyreactivity |
| QVQLVESAGGLVQAGGILRLSCAASGGIFRGYAMGWYRQAPGKERELVATIRSSGRTNYADSVKGRFTISRDNAKNTVYLQMNSLKPEDTAVYYCNKRRWWQYDRWGDWVLGGDDYWGQGTQVTVSS | low polyreactivity |
| QVQLVESAGGLVQAGGILRLSCAASGRIFTRNAMGWYRQAPGKERELVAAISSSSGSKYYADSVKGRFTISRDNAKNTVYLQMNSLKPEDTAVYYCAARSYYYSWGYDHWGQGTQVTVSS | high polyreactivity |
| QVQLVESAGGLVQAGGRLRLSCAASGFTFKKYAMGWYRQAPGKERELVASITWSGGSTSYADSVKGRFTISRDNAKNTVYLQMTSLKPEDTAVYYCAAATFVYRLRYNRFDYGGQGTQVTVSS | high polyreactivity |
| QVQLVESAGGLVQAGGSHRLSCAASGFIFDSYAMGCYRPAPGKERELVAAITYSGSSTYYADSVKGRFTISRDNAKNTVYLQMNSLKPEDTGVYYCAAVWRYSHLYGYWGQGTQVTVSS | high polyreactivity |
| QVQLVESAGGLVQAGGSLRISCAASGIIFARYSMGWYRPAPGKERELVAAINSSGGDTYYADSVKGRFTISRDTANNTVYLQMISLKPEDPAVYYCAKVISYLVVLPRTERYEGDYWGQGTQVTVSS | low polyreactivity |
| QVQLVESAGGLVQAGGSLRLICAASGFTSNVYTMGWYRQAPGKERELVAAITSGGSTNYADSVKGRFTISRDNAKNTVYLQMNSLKPEDTAVYYCNTDVKEYFHHEGYPLRWEYDYWGQGTQVTVSS | low polyreactivity |
| QVQLVESAGGLVQAGGSLRLSCAASGFIFEWYTMGWYRHAPGKERELVARISSDGSTTYADSVKGRFRISRDNAKNTVYLQMNSLKPEDTAVYYCAADVTYPGLKYIFDYWGQGSQVTVSS | low polyreactivity |
| QVQLVESAGGLVQAGGSLRLSCAASGFIFYSNAMGWYRQAPGKERELVAGISRGGSTYYADSVKGRFTISRDNAKNTVYLQMNSLKPEDTAVYYCAASPSSYGRYGYWGQGTQVTVSS | low polyreactivity |
| QVQLVESAGGLVQAGGSLRLSCAASGFTFREYAMGWYRQAPGKERELVAVITSGDNTYYADSVKGRFTISRDNAKNTVYLQMNSLKPEDTAVYYCAKDYNRYYWPWVIRGYDYWGQGTQVTVSS | low polyreactivity |
| QVQLVESAGGLVQAGGSLRLSCAASGFTFYWYAMGWYRQAPGKEREFVAAIDQSGGSTYYADSVKGRFTISRDNAKNTVYLQMNSLKPEDTAVYYCAARYILWDGDSWTEFDYWGQGTQVTVSS | low polyreactivity |
| QVQLVESAGGLVQAGGSLRLSCAASGITLSYNAMGWYRQAPGKERELVAAISARGGSTYYADSVKGRFTISRDPAKNTVYLQMYSLKPEDTAVYYCAAPRGWRQNKYDYWGQVTQVTVSS | high polyreactivity |
| QVQLVESAGGLVQAGGSLRLSCAASGITYDHYAMGWYRQAPGKERELVARITGTGDSTYYADSVKGRFTISRDNAKNTVYLQMNSLKPEDTAVYYCAAVSYRQYYGWGNYWGLGTQVTVSS | low polyreactivity |
| QVQLVESAGGLVQAGGSLRLSCAASGLTYVPNAMGWYRQAPGKEREIVAAICNNGGRTYYADSVKGRFTISRDNAKNTVYLEMNSLKPEDTAVYYCAKYLSPGERHSYDYWGQGTQVTVSS | high polyreactivity |
| QVQLVESAGGLVQAGGSLRLSCAASGNTFDPNAMGWYRQAPGKEREFVAAISTIGSSTYYADSVKGRFTISRDNAKYTVYLQMNSLNPEVTAVYYCAKGIYVVYGIDDYWGQGTQVTLSS | low polyreactivity |
| QVQLVESAGGLVQAGGSLRLSCAASGRIFGQYTMGWYRQAPGKERELDAAISSSGGRTYYADSVKGRFTISRDNAKNTVYLQMNSLKPEDTAVYYCAARDRPSPYYYWGQGTQVTVSS | high polyreactivity |
